Assay results reported in article PMC11165160, “Four novel Cit7GlcTs functional in flavonoid 7-O-glucoside biosynthesis are vital to flavonoid biosynthesis shunting in citrus” (Horticulture Research, 2024).

Tests used:
Assay in all cases: HPLC product assay, Michaelis-Menten fit
Type in all cases: biochemical, Citrus maxima
[1] = substrate: COc1ccc([C@@H]2CC(=O)c3c(O)cc(O)cc3O2)cc1O; conditions: 1 mM UDP-glucose
[2] = substrate: O=c1c(O)c(-c2ccc(O)cc2)oc2cc(O)cc(O)c12; conditions: 1 mM UDP-glucose
[3] = substrate: O=c1cc(-c2ccc(O)cc2)oc2cc(O)cc(O)c12; conditions: 1 mM UDP-glucose
[4] = substrate: O=C1C[C@@H](c2ccc(O)cc2)Oc2cc(O)cc(O)c21; conditions: 1 mM UDP-glucose
[5] = substrate: O=c1c(O)c(-c2ccc(O)c(O)c2)oc2cc(O)cc(O)c12; conditions: 1 mM UDP-glucose, 50 mM PBS pH 7.0, 35 °C
Excerpt: (§1) HPLC product assay, Michaelis-Menten fit on CgUGT89AK1

[6] = substrate: COc1ccc(-c2cc(=O)c3c(O)cc(O)cc3o2)cc1O; conditions: 1 mM UDP-glucose, 50 mM PBS pH 7.0, 35 °C
Excerpt: as §1

[7] = substrate: O=c1cc(-c2ccc(O)cc2)oc2cc(O)cc(O)c12; conditions: 1 mM UDP-glucose, 50 mM PBS pH 7.0, 35 °C
Excerpt: as §1

[8] = substrate: O=C1C[C@@H](c2ccc(O)c(O)c2)Oc2cc(O)cc(O)c21; conditions: 1 mM UDP-glucose, 50 mM PBS pH 7.0, 35 °C
Excerpt: as §1

[9] = substrate: O=C1C[C@@H](c2ccc(O)cc2)Oc2cc(O)cc(O)c21; conditions: 1 mM UDP-glucose, 50 mM PBS pH 7.0, 35 °C
Excerpt: as §1

[10] = substrate: COc1ccc(-c2cc(=O)c3c(O)cc(O)cc3o2)cc1O; conditions: 1 mM UDP-glucose, 50 mM PBS pH 7.0, 35 °C; remark: listed apart in the source

B1: CgUGT89D30 (Citrus maxima) (protein)
chain: MSSSNTRTTHILIFPYPAQGHMLPLLDLTHQLSLKDLDITILVTPKNLPILSPLLDAHPAIKTLVLPFPSHPSIPPGIENVRELGNRGNYPIMTALGKLYGPIIDWFRSQANPPVAILSDFFLGWTLKLAHQLNIVRIAFFSSGWLLASVVDYCWHHIGDVKSLDVVEFPDLPRYPVFKRRHLPSMVRSYKESDPESQFVKDGNLANTSSWGCVFNSFDALEGEYSDYLKRKMGHDRVFGVGPLSLVGLESTGGGDPGLGPNDHVTKWLDGCPDGSVVYVCFGSQKALKRDQMEALASGLEKSGIRFLWVVKTGMIGKGDDGYGSMPDGFEEQVAGRGLVLKGWAPQVSILSHKAVGGFLSHCGWNSLLEGIVGGAMILAWPMEADQFVNAKLLVEDLGVAVQVCEGADSVPDSDELGNIIAESLSQRDEVKIKAKELRDDALAAVKSDGSSARDLDRLVEELRNLHAK
- Km ([1]; 50 mM PBS pH 7.0, 30 °C): 207.41 ± 77.33 µM
- kcat/Km ([1]; 50 mM PBS pH 7.0, 30 °C): 11 M⁻¹ s⁻¹
- Km ([2]; 50 mM PBS pH 7.0, 30 °C): 35.76 ± 18.07 µM
- kcat/Km ([2]; 50 mM PBS pH 7.0, 30 °C): 21.9 M⁻¹ s⁻¹
- Km ([3]; 50 mM PBS pH 7.0, 30 °C): 17.34 ± 10.85 µM
- kcat/Km ([3]; 50 mM PBS pH 7.0, 30 °C): 88.2 M⁻¹ s⁻¹
- Km ([4]; 50 mM PBS pH 7.0, 30 °C): 79.57 ± 5.51 µM
- kcat/Km ([4]; 50 mM PBS pH 7.0, 30 °C): 18.1 M⁻¹ s⁻¹

B2: CgUGT89AK1 (Citrus maxima) (protein)
chain: MLPAGAHILVYPFPTSGHIIPLLDLTNRLLTLGLNVTVLITQNNLPLLDSLNANHPSTSLQSLVLPQPKWPAGSPATRLLKFMRVLRELHYPALLDWFKSHPSPPVAILSDFFLGWTQGLAAELGLPRVVFSPSGAFALSVSFAMWTDLPTNDDPDNVDALVSFPRVPNCPVYHWYQISHLYRTLKEGDPDWDLHRSNMMANKTSWGIVFNSFAELERVYIDHMKKEMGHDRVWAVGPVLPPDDDLVESMCRGGSSSVPAHDVLTWLDSRRDESVVYVCFGSRYVLTAKQIHELAAALEKTDVDFVYCVREPDERHASQDCGVLPDGFEDRVAGRGYVIRGWSQQVAILRHKAVGAFLTHCGWNSVLEGVSAGVVMLTWPMDADQYTNAQLLVDQLGVGIRVGEGTRNIPESGELARLLAQSVDGPRRERLKARELSGAALSAVVKGGSSDRDLNDFIKRINELKSGKNLTAV
- Km [5]: 19.44 ± 11.00 µM
- kcat/Km [5]: 1350 M⁻¹ s⁻¹
- Km [6]: 6.16 ± 2.64 µM
- kcat/Km [6]: 284 M⁻¹ s⁻¹
- Km [7]: 24.37 ± 5.03 µM
- kcat/Km [7]: 107 M⁻¹ s⁻¹
- Km [8]: 26.25 ± 5.65 µM
- kcat/Km [8]: 154 M⁻¹ s⁻¹
- Km [9]: 52.88 ± 17.30 µM
- kcat/Km [9]: 48.3 M⁻¹ s⁻¹

B3: CgUGT73AC12 (Citrus maxima) (protein)
chain: MDSKSSPVEMFFFPYVGGGHQIPMVDIARIFAAHGAKSTIITSPKHALSFQKSINRNQQSGLPITIKTLHLPDDIEIPDTDMSATPRTDTSMLQKPLKSLLLDSRPDCIVHDMFHHWSADVINSMNIPRIVFNGNCCFSRCVLENVRKYKPHEKVSSDYEPFVVPGLPDKIELTSSQLPVGARQQEAGSVHKMFAKPEEKSFGIVVNSFYDLEPAYVEYFKQDLGNDKAWFVGPVSLCNRNIEDKAERGQKTSIDEGKILSFLDSKETNSVLYISFGSLARLAPEQLLEIAYGLEASNHSFIWVVGKIFQSPGTRKENGIEENWLPSGFEERMRESKRGLIIRGWAPQLLILEHAAVGGFMTHCGWNSTLESVSAGVPMVTWPITAEQFSNEKLISDVLKIGVKVGSVNWVSWSTEPSAAVGRDKVEVAVKRLMGTGEEAAEMRRRAGELGEKAKNAVEEGGSSFIDAEALLQELKSLSRI
- Km ([1]; 50 mM PBS pH 7.0, 35 °C): 169.68 ± 54.77 µM
- kcat/Km ([1]; 50 mM PBS pH 7.0, 35 °C): 5.62 M⁻¹ s⁻¹
- Km ([2]; 50 mM PBS pH 7.0, 35 °C): 92.58 ± 55.02 µM
- kcat/Km ([2]; 50 mM PBS pH 7.0, 35 °C): 11 M⁻¹ s⁻¹
- Km ([3]; 50 mM PBS pH 7.0, 35 °C): 153.66 ± 62.17 µM
- kcat/Km ([3]; 50 mM PBS pH 7.0, 35 °C): 5.93 M⁻¹ s⁻¹
- Km ([4]; 50 mM PBS pH 7.0, 35 °C): 105.34 ± 35.62 µM
- kcat/Km ([4]; 50 mM PBS pH 7.0, 35 °C): 6.36 M⁻¹ s⁻¹

B4: CgUGT90A31 (Citrus maxima) (protein)
chain: MGSISSDHHVVLFPFMSKGHIIPILNLVQLLLRRPRVTVTVFTTPANRPFTSKFLSNSSTAACSIIDIPYPENVPEIPAGVESTDKLPSMSLYVPFTRATKLMQPHFERALESLPRVSFMVSDGFLWWTLDSANKFGFPRLVFYGMNNYAMSVSRSVGQNRLLSGVQSDDELLTLPEFPWIKITKKDFDSPITDPEPKGPHFELFIDQIVSTSNSHGMIVNSFYELEPLFADHCNRVGKPKSWCVGPLCLAELPPKNEEPKNELSKPAWIKWLDRKLDEGSSVMYVAFGSQAEISAQQLKEIAIGLEQSKVNFLWVIRTAQSELGDGFEERVKGRGLVVRDWVDQNEILWHGSVQGFLSHCGWNSTLESICAGVPILAWPMMAEQPLNARMVTEEIKVGLRVETCDGSVRGFVKWRGLEKTMRELMGGEKGEKARTKVKELSEIARKAMEEGKGSSWRCLDMLLDETCKLEQHD
- Km ([1]; 50 mM PBS pH 7.0, 35 °C): 179.10 ± 48.24 µM
- kcat/Km ([1]; 50 mM PBS pH 7.0, 35 °C): 51.4 M⁻¹ s⁻¹
- Km ([2]; 50 mM PBS pH 7.0, 35 °C): 56.20 ± 19.14 µM
- kcat/Km ([2]; 50 mM PBS pH 7.0, 35 °C): 6.48 M⁻¹ s⁻¹
- Km [10]: 34.93 ± 10.80 µM
- kcat/Km [10]: 15.8 M⁻¹ s⁻¹
- Km ([4]; 50 mM PBS pH 7.0, 35 °C): 139.04 ± 40.50 µM
- kcat/Km ([4]; 50 mM PBS pH 7.0, 35 °C): 52 M⁻¹ s⁻¹
